This passage reports Minimum cell viability (%) and Maximum fluorescence value results from patent EP4778941A1, “HER3/MET BINDING MOLECULE AND PHARMACEUTICAL USE THEREOF” (priority 2023, dated 2025).

Assay [1] deals with Human HER3 and MET proteins together on HER3/MET double-positive cells (human) (UniProt P21860). The assay is described as follows: cell-based or functional assay.
Assay [2] concerns the target Human HER3 protein on the cell surface (human) (UniProt P21860). The assay is described as follows: cell-based or functional assay.
For assay [3], the target named is Human MET protein on the cell surface (human) (UniProt P08581). The experiment in a line: cell-based or functional assay.
Sequence of Human MET protein on the cell surface (human) (P08581 25-1390): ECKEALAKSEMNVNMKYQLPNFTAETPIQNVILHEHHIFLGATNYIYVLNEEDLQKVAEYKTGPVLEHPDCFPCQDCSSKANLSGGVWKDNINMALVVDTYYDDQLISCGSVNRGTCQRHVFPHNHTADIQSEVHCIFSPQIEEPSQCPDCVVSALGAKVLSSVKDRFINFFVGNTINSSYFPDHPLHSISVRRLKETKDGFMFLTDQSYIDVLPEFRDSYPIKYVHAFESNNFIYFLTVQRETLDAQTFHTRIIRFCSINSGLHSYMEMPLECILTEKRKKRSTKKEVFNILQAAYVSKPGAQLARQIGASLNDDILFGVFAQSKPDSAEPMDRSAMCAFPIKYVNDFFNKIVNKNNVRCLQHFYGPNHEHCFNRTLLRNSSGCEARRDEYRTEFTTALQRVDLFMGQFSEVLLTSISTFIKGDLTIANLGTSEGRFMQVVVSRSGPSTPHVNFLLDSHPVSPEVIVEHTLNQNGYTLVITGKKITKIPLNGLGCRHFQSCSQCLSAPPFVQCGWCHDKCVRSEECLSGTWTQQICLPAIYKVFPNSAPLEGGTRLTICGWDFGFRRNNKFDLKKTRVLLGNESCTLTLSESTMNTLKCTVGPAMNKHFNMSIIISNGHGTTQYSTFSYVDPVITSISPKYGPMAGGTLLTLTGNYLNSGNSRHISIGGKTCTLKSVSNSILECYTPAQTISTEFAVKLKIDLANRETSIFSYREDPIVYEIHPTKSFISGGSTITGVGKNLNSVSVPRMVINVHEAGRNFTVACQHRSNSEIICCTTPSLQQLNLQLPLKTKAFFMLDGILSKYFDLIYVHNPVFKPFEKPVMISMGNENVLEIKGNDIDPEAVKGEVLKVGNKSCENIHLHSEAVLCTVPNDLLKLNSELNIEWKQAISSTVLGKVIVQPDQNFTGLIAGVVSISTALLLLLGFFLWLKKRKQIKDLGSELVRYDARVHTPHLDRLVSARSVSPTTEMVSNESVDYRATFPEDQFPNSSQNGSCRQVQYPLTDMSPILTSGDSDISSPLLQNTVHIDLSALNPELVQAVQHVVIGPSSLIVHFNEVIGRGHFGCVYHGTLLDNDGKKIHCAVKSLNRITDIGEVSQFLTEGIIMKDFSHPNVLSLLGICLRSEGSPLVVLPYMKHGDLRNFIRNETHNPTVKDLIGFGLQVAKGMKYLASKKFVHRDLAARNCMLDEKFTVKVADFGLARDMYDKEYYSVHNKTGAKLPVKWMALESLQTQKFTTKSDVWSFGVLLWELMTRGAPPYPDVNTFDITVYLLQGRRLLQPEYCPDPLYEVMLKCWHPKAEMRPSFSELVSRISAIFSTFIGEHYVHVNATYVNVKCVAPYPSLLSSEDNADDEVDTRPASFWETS
Assay [4] deals with Human HER3 and MET proteins together on HER3/MET double-positive cells (human) (UniProt P21860). The assay is described as follows: cell-based or functional assay. The source holds these as a separate data set.
For assay [5], the target named is Human MET protein on the cell surface (human) (UniProt P08581). The experiment in a line: FACS on NCI-H1703 cells (MET single-positive).
Assay [6] deals with Human HER3 protein on the cell surface (human) (UniProt P21860). The experiment in a line: FACS on MDA-MB-453 cells (HER3 single-positive).
For assay [7], the target named is Human HER3 and MET proteins together on HER3/MET double-positive cells (human) (UniProt P21860). The experiment in a line: FACS on HCC827 Osimertinib-resistant cells (HER3/MET double-positive).

Read-outs that look alike come from different tables or passages of the source.

As to IgG1 isotype control antibody, the Minimum cell viability (%) in assay [1] was determined as 90.9%; in assay [2], 92.9%; in assay [3] it was 78.6%; in assay [4] it was 102%. The Maximum fluorescence value in assay [5], in assay [6] and in assay [7] was 74 in each case.
